The text below walks through data of publication PMC3892784 (mBio, 2013).

B1: NtrC1189 (domain or fragment, UniProt Q1DD25 1-450, looked up)
chain: MKPGPRILIVDDDSGVLRALRGLLSDEGFTPVEARSAAEASQLLDAPEGPPAMMLLDLRMPGETGLELLARLPRPFPAPVVVLSGEASPAEAVQALRLGATDFVEKPPSPERLLTAVRNALALGS
B4: T. maritima RR468 (natural protein, UniProt Q9WYT9 1-122, looked up)
chain: MSKKVLLVDDSAVLRKIVSFNLKKEGYEVIEAENGQIALEKLSEFTPDLIVLDIMMPVMDGFTVLKKLQEKEEWKRIPVIVLTAKGGEEDESLALSLGARKVMRKPFSPSQFIEEVKHLLNE
B5: FrgC (domain or fragment, UniProt Q9RF09 1-466, looked up)
chain: MNESLRGTVLLVDDDPAVAKVLGALLTQAGLTTHAARDGQEALALLASKPVDVVVSDVRMPGMDGLQVLAEVARGWPDVPVILLTAHGTVPLAVEAMKAGAADFVLKPFDREEILFTVRKALLRAQG

For experiment [1], the target named is CrdS6 (Myxococcus xanthus (strain DZ2 genomic DNA)). The experiment is described as follows: other fluorescence titration.
Experiment [2] concerns the target FrgB (Myxococcus xanthus (strain DZ2 genomic DNA)) (UniProt Q9RF10). As to the kind of experiment: ITC.
Experiment [3] deals with CrdS6 (Myxococcus xanthus (strain DZ2 genomic DNA)). The experiment is described as follows: ITC.
Experiment [4] concerns the target T. maritima HK853 (T. maritima) (UniProt Q9WZV7). The experiment is described as follows: ITC. (In general: ITC needs no label: the signal is the heat of the interaction.)
The target of another experiment is T1, T. maritima HK853 (T. maritima, UniProt Q9WZV7 232-489).
T1 sequence (looked up): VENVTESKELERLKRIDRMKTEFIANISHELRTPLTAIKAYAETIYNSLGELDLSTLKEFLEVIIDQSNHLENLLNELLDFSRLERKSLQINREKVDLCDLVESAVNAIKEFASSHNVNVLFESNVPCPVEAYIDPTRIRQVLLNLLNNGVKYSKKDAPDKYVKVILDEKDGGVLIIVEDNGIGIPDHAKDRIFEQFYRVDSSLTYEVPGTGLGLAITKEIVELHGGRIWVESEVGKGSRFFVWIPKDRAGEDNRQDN
The experiment is described as follows: ITC.

The next experiment deals with T2, FrgB (Myxococcus xanthus (strain DZ2 genomic …, UniProt Q9RF10 1-510)).
T2 sequence (looked up): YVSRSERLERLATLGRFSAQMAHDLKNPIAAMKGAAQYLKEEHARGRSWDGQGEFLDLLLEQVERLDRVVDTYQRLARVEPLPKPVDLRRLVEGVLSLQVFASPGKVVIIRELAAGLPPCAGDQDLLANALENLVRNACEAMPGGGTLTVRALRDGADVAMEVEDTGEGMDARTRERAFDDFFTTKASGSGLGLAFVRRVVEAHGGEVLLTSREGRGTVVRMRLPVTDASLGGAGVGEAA
The experiment is described as follows: ITC.

The target in a further experiment is T3, HK1190 (Myxococcus xanthus (strain DZ2 genomic …, UniProt Q1DD24 1-424)).
T3 sequence (looked up): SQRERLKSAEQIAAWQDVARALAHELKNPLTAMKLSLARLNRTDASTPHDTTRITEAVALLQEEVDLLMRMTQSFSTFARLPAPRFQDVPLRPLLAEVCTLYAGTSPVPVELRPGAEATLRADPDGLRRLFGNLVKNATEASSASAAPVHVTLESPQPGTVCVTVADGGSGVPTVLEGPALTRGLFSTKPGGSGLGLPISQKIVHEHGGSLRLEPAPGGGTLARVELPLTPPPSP
The experiment is described as follows: ITC.

In experiment [5] the target is T4, CrdA (Myxococcus xanthus (strain DZ2 genomic …, UniProt Q84I63 1-498)).
T4 sequence (looked up): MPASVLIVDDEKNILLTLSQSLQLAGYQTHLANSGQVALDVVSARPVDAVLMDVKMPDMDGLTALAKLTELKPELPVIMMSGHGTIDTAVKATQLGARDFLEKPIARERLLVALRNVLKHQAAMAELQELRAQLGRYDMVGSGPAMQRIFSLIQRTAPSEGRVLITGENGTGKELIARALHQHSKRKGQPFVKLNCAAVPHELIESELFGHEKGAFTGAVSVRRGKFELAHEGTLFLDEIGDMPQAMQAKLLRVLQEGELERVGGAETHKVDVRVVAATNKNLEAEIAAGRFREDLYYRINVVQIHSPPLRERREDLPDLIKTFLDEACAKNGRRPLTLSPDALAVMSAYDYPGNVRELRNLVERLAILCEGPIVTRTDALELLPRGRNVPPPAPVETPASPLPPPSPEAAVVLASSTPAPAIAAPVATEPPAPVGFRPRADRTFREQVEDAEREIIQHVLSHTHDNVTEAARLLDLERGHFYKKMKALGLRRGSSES
As to the kind of experiment: other fluorescence titration.

For experiment [6], the target named is T4, CrdA. As to the kind of experiment: ITC.
In the experiment “FrgC” the target is B5. The experiment is described as follows: ITC.
The experiment “NtrC1189” concerns the target B1. As to the kind of experiment: ITC.
For the experiment “T. maritima RR468”, the target named is B4. As to the kind of experiment: ITC.

A word on the Kd: it is the free concentration of one partner at which half of the binding sites on the other are occupied at equilibrium, for simple one-to-one binding. As for “CrdA (from UniProt Q84I63 1-498) (domain or fragment)”, the equilibrium dissociation constant (Kd) in [1] was greater than 200 µM; in [2] it was greater than 75 µM; in experiment [3], greater than 75 µM; in experiment [4], greater than 75 µM.

For B1, the equilibrium dissociation constant (Kd) with T. maritima HK853 was greater than 55 µM; with FrgB, greater than 75 µM; with HK1190 it was 1.23 µM.

B2: CrdS (domain or fragment)
chain: RLMASERIAAWQEVARRLAHEIKNPLTPIRMSLETLQAAQEAKHPRFQDMFKESAGVVLEEVDRLRRIVDEFSHFARMPKPQLAPVDLGELAQSVLALYATPPTGIQILPTLQTGVVARVDRDQLTQVLVNLVKNAEEAMASTGGTLRVRVRSTEADAIVEVEDSGPGIPLEHRARIFEPYFTTKDGGTGLGLAIASRILQEHGGKLEVGGEPGHGARFSLVLPRAA
As to B2, the dissociation constant Kd is 2.28 ± 0.66 µM with CrdA [5]; 1.41 µM in the experiment with CrdA [6]; greater than 75 µM with FrgC; greater than 75 µM with NtrC1189; greater than 75 µM in the experiment with T. maritima RR468.

B3: CrdS6 (domain or fragment)
chain: RLMASERIAAWQEVARRLAHEIKNPLTAIRLSLARLQAAQEAKHPRFQDMFKESAGVVLEEVDRLRRIVDEFSHFARMPKPQLAPVDLGELAQSVLALYATPPTGIQILPTLQTGVVARVDRDQLTQVLVNLVKNAEEAMASTGGTLRVRVRSTEADAIVEVEDSGPGIPLEHRARIFEPYFTTKDGGTGLGLAIASRILQEHGGKLEVGGEPGHGARFSLVLPRAA
Regarding B3, binding in the experiment with NtrC1189 was characterised by a dissociation constant (Kd) of 2.09 µM.

Take B4: the results for the Kd with T. maritima HK853, in the experiment with FrgB and with HK1190 were 1.16 µM, greater than 75 µM and greater than 55 µM, respectively.

B5: the Kd with T. maritima HK853 is greater than 55 µM; in the experiment with FrgB it was 1.23 µM; in the experiment with HK1190, greater than 35 µM.
